Laboratory results published in US20200165325A1.

Columns and labels:
[1] = molecular target: HIV-1 Env of strain 0330.v4.c3 (HIV-1)
[2] = molecular target: HIV-1 Env of strain 0815.v3.c3 (HIV-1)
[3] = molecular target: HIV-1 Env of strain 1006_11_C3_1601 (HIV-1)
[4] = molecular target: HIV-1 Env of strain 1054_07_TC4_1499 (HIV-1)
[5] = molecular target: HIV-1 Env of strain 1056_10_TA11_1826 (HIV-1)
[6] = molecular target: HIV-1 Env of strain 3016.v5.c45 (HIV-1)
[7] = molecular target: HIV-1 Env of strain 3301.v1.c24 (HIV-1)
[8] = molecular target: HIV-1 Env of strain 3415.v1.c1 (HIV-1)
[9] = molecular target: HIV-1 Env of strain 3718.v3.c11 (HIV-1)
[10] = molecular target: HIV-1 Env of strain 3817.v2.c59 (HIV-1)
[11] = molecular target: HIV-1 Env of strain 62357_14_D3_4589 (HIV-1)
[12] = molecular target: HIV-1 Env of strain 6480.v4.c25 (HIV-1)
[13] = molecular target: HIV-1 Env of strain 6535.3 (HIV-1)
[14] = molecular target: HIV-1 Env of strain 6540.v4.c1 (HIV-1)
[15] = molecular target: HIV-1 Env of strain 6545.v4.c1 (HIV-1)
[16] = molecular target: HIV-1 Env of strain 6811.v7.c18 (HIV-1)
[17] = molecular target: HIV-1 Env of strain 703357.C02 (HIV-1)
[18] = molecular target: HIV-1 Env of strain 89-F1_2_25 (HIV-1)
[19] = molecular target: HIV-1 Env of strain 928-28 (HIV-1)
[20] = molecular target: HIV-1 Env of strain AC10.0.29 (HIV-1)
[21] = molecular target: HIV-1 Env of strain C1080.c03 (HIV-1)
[22] = molecular target: HIV-1 Env of strain C2101.c01 (HIV-1)
[23] = molecular target: HIV-1 Env of strain C3347.c11 (HIV-1)
[24] = molecular target: HIV-1 Env of strain CAAN5342.A2 (HIV-1)
[25] = molecular target: HIV-1 Env of strain CNE17 (HIV-1)
[26] = molecular target: HIV-1 Env of strain CNE20 (HIV-1)
[27] = molecular target: HIV-1 Env of strain CNE21 (HIV-1)
[28] = molecular target: HIV-1 Env of strain CNE30 (HIV-1)
[29] = molecular target: HIV-1 Env of strain CNE58 (HIV-1)
[30] = molecular target: HIV-1 Env of strain Ce0393_C3 (HIV-1)
[31] = molecular target: HIV-1 Env of strain Ce0682_E4 (HIV-1)
[32] = molecular target: HIV-1 Env of strain Ce1176_A3 (HIV-1)
[33] = molecular target: HIV-1 Env of strain Ce2060_G9 (HIV-1)
[34] = molecular target: HIV-1 Env of strain Ce703010054_2A2 (HIV-1)
[35] = molecular target: HIV-1 Env of strain Du172.17 (HIV-1)
[36] = molecular target: HIV-1 Env of strain HIV-16845-2.22 (HIV-1)
[37] = molecular target: HIV-1 Env of strain P0402_c2_11 (HIV-1)
[38] = molecular target: HIV-1 Env of strain P1981_C5_3 (HIV-1)
[39] = molecular target: HIV-1 Env of strain PVO.4 (HIV-1)
[40] = molecular target: HIV-1 Env of strain Q23.17 (HIV-1)
[41] = molecular target: HIV-1 Env of strain Q461.e2 (HIV-1)
[42] = molecular target: HIV-1 Env of strain Q769.d22 (HIV-1)
[43] = molecular target: HIV-1 Env of strain Q842.d12 (HIV-1)
[44] = molecular target: HIV-1 Env of strain R1166.c01 (HIV-1)
[45] = molecular target: HIV-1 Env of strain REJO4541.67 (HIV-1)
[46] = molecular target: HIV-1 Env of strain RHPA4259.7 (HIV-1)
[47] = molecular target: HIV-1 Env of strain SC422661.8 (HIV-1)
[48] = molecular target: HIV-1 Env of strain T250-4 (HIV-1)
[49] = molecular target: HIV-1 Env of strain T251-18 (HIV-1)
[50] = molecular target: HIV-1 Env of strain TRJO4551.58 (HIV-1)
[51] = molecular target: HIV-1 Env of strain WEAU_d15_410_787 (HIV-1)
[52] = molecular target: HIV-1 Env of strain X1254_c3 (HIV-1)
[53] = molecular target: HIV-1 Env of strain X2131_C1_B5 (HIV-1)
[54] = molecular target: HIV-1 Env of strain ZM109F.PB4 (HIV-1)
[55] = molecular target: HIV-1 Env of strain ZM214M.PL15 (HIV-1)
[56] = molecular target: HIV-1 Env of strain ZM247v1(Rev-) (HIV-1)
[57] = molecular target: HIV-1 Env of strain ZM249M.PL1 (HIV-1)

NIH45-46 G54F IgG (antibody) gave an In vitro neutralization IC80 [1] of 0.13 µg/mL, an In vitro neutralization IC80 [2] of 0.014 µg/mL and an In vitro neutralization IC80 [3] of 0.024 µg/mL. For the same substance, the In vitro neutralization IC80 [4] was 0.283 µg/mL, the In vitro neutralization IC80 [5] was 0.283 µg/mL and the In vitro neutralization IC80 [6] was 37 µg/mL. It also gave an In vitro neutralization IC80 [7] of 0.011 µg/mL, an In vitro neutralization IC80 [8] of 0.029 µg/mL and an In vitro neutralization IC80 [9] of 4.62 µg/mL. The In vitro neutralization IC80 [10] was greater than 50 µg/mL, the In vitro neutralization IC80 [11] was 0.14 µg/mL and the In vitro neutralization IC80 [12] was 0.046 µg/mL. It also gave an In vitro neutralization IC80 [13] of 0.27 µg/mL, an In vitro neutralization IC80 [14] greater than 50 µg/mL and an In vitro neutralization IC80 [15] greater than 50 µg/mL. For the same substance, the In vitro neutralization IC80 [16] was 0.063 µg/mL, the In vitro neutralization IC80 [17] was greater than 50 µg/mL and the In vitro neutralization IC80 [18] was greater than 50 µg/mL. The In vitro neutralization IC80 [19] was 0.41 µg/mL, the In vitro neutralization IC80 [20] was 1.12 µg/mL and the In vitro neutralization IC80 [21] was 2.26 µg/mL. It also gave an In vitro neutralization IC80 [22] of 0.42 µg/mL, an In vitro neutralization IC80 [23] of 0.059 µg/mL and an In vitro neutralization IC80 [24] of 0.28 µg/mL. For the same substance, the In vitro neutralization IC80 [25] was 0.287 µg/mL, the In vitro neutralization IC80 [26] was 3.91 µg/mL and the In vitro neutralization IC80 [27] was 0.66 µg/mL. The In vitro neutralization IC80 [28] was 0.348 µg/mL, the In vitro neutralization IC80 [29] was 0.11 µg/mL and the In vitro neutralization IC80 [30] was 0.173 µg/mL. For the same substance, the In vitro neutralization IC80 [31] was 0.056 µg/mL, the In vitro neutralization IC80 [32] was 0.83 µg/mL and the In vitro neutralization IC80 [33] was 0.085 µg/mL. The In vitro neutralization IC80 [34] was 0.07 µg/mL, the In vitro neutralization IC80 [35] was greater than 50 µg/mL and the In vitro neutralization IC80 [36] was 2.75 µg/mL. The In vitro neutralization IC80 [37] was 0.047 µg/mL, the In vitro neutralization IC80 [38] was 0.11 µg/mL and the In vitro neutralization IC80 [39] was 0.25 µg/mL. The In vitro neutralization IC80 [40] was 0.07 µg/mL, the In vitro neutralization IC80 [41] was 0.135 µg/mL and the In vitro neutralization IC80 [42] was 0.023 µg/mL. It also gave an In vitro neutralization IC80 [43] of 0.039 µg/mL, an In vitro neutralization IC80 [44] of 1.32 µg/mL and an In vitro neutralization IC80 [45] of 0.028 µg/mL. For the same substance, the In vitro neutralization IC80 [46] was 0.02 µg/mL, the In vitro neutralization IC80 [47] was 0.1 µg/mL and the In vitro neutralization IC80 [48] was greater than 50 µg/mL. The In vitro neutralization IC80 [49] was 1.38 µg/mL, the In vitro neutralization IC80 [50] was 0.08 µg/mL and the In vitro neutralization IC80 [51] was 0.004 µg/mL. For the same substance, the In vitro neutralization IC80 [52] was 0.043 µg/mL, the In vitro neutralization IC80 [53] was 0.41 µg/mL and the In vitro neutralization IC80 [54] was 0.17 µg/mL. It also gave an In vitro neutralization IC80 [55] of 0.3 µg/mL, an In vitro neutralization IC80 [56] of 2.45 µg/mL and an In vitro neutralization IC80 [57] of 0.016 µg/mL.
